What all share (experiment): Crosslinking/co-immunoprecipitation/mass spectrometry (TMT quantitative proteomics) to identify irisin receptors
What all share (format): binding

The target in assay [1] is T1, MLO-Y4 cell surface proteins (Mus musculus, UniProt P04117).
T1 construct: endogenous in cells; host or cells: MLO-Y4
T1 sequence (P04117 1-132): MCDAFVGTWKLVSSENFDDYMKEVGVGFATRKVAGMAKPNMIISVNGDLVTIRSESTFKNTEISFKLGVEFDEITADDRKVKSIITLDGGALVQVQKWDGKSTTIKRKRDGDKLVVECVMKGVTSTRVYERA
The conditions noted are these: co-precipitated protein Fabp4 (FABP4_MOUSE). A digest of the protocol: (§1)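 Relative protein abundance came from 6-plex TMT MS3 quantitation on an Orbitrap Fusion Lumos, after in-gel trypsin digestion of Coomassie-stained SDS-PAGE lanes. Input was a Ni-NTA pulldown (250 mM imidazole elution) of lysates from murine MLO-Y4 cells. These cells were treated on ice with His-tagged irisin or adipsin (10 nM, 20 min) in serum-free medium, then crosslinked with 1.5 mM DTSSP for 30 min.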

For assay [2], the target named is T2, MLO-Y4 cell surface proteins (Mus musculus, UniProt Q66L42).
T2 construct: endogenous in cells; host or cells: MLO-Y4
As to conditions: co-precipitated protein Map3k10 (M3K10_MOUSE). A digest of the protocol:
as §1

Assay [3] addresses T3, MLO-Y4 cell surface proteins (Mus musculus, UniProt P52825).
T3 construct: endogenous in cells; host or cells: MLO-Y4
T3 sequence (P52825 26-658): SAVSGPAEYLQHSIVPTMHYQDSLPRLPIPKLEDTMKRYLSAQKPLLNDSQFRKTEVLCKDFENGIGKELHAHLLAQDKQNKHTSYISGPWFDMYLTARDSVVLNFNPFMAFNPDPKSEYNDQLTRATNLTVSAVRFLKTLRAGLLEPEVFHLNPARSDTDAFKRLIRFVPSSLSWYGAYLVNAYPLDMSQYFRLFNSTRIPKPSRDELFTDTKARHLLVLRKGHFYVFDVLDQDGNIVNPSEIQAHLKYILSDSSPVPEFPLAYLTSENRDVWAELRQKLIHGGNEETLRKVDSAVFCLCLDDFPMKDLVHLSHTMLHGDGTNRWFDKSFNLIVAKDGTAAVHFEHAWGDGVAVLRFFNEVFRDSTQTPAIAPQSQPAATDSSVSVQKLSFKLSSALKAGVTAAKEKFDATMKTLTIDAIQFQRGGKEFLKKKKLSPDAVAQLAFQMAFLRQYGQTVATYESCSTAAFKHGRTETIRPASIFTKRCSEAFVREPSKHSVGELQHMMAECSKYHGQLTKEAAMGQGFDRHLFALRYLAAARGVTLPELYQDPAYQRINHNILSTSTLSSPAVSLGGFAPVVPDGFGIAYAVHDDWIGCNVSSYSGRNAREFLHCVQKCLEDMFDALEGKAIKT
As to conditions: co-precipitated protein Cpt2 (CPT2_MOUSE). A digest of the protocol:
as §1

We go through 1 molecule from patent US20210063414A1, “METHODS FOR PREVENTING AND/OR TREATING BONE LOSS CONDITIONS BY MODULATING IRISIN” (Dana-Farber Cancer Institute, Inc., priority 2018, published 2021).

T2 sequence (Q66L42 whole entry): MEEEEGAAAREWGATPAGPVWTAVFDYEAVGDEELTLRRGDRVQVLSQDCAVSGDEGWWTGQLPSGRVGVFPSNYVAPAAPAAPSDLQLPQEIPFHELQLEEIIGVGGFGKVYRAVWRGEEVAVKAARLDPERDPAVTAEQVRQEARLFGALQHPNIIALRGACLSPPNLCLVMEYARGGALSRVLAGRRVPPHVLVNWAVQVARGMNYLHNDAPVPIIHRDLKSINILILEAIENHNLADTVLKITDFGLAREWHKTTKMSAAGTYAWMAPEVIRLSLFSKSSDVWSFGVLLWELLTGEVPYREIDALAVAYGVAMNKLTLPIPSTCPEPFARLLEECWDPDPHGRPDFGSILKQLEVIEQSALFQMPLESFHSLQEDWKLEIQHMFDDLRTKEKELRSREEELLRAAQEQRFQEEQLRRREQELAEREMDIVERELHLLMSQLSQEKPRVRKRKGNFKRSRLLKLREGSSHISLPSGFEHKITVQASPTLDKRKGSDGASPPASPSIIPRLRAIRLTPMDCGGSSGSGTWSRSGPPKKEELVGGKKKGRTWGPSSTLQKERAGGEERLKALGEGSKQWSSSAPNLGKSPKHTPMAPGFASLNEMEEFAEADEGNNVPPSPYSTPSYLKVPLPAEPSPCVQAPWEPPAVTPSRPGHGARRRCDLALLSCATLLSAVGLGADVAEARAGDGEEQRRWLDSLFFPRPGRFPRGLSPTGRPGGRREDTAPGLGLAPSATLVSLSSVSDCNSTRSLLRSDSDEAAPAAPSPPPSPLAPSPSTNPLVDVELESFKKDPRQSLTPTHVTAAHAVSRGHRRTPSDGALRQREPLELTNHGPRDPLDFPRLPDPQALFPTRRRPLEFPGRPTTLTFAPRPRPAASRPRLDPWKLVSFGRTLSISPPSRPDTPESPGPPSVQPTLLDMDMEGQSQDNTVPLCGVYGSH

B1: irisin: secreted cleaved form of FNDC5; recombinant human/mouse irisin with C-terminal his tag produced in HEK293 cells (protein)
chain: DSPSAPVNVTVRHLKANSAVVSWDVLEDEVVIGFAISQQKKDVRMLRFIQEVNTTTRSCALWDLEEDTEYIVHVQAISIQGQSPASEPVLFKTPREAEKMASKNKDEVTMKE
modifications: left off: small tags and cut ends
notes: secreted cleaved form of FNDC5; recombinant human/mouse irisin with C-terminal his tag produced in HEK293 cells
In the case of B1, the TMT signal-to-noise ratio in assay [1] amounted to 40.1352; in assay [2], 3.455; in assay [3] it was 96.8301. Also, the “irisin/adipsin TMT signal-to-noise ratio” value in assay [1] is recorded as 0.054; in assay [2], 0.032; in assay [3], 0.545.
